Assay results reported in patent publication US7371842B2, “Polynucleotide encoding a 35 KDA protein thats binds to WF00144” (Astellas Pharma Inc., priority 2002, dated 2008).

Assay: Aldol cleavage reaction of fructose 1,6-bisphosphate, coupled with TIM/G3PDH, NADH 340 nm
Format: biochemical
Conditions: F1,6P2 cleaved, 37° C., 30 minutes, pH 8.0
Description: The aldolase activity of the human 35 kd protein was determined as follows, according to the method described in a reference (Novel Biochemistry Experiment Lectures, Vol. 15, Metabolism Abnormality, p. 111, edit. Biochemical Society of Japan, publish. Tokyo Kagaku Dojin-sha, Sep. 22, 1992):
Conjugated with triose phosphate isomerase (TIM) and glycerol 3-phosphate dehydrogenase (G3PDH), the aldol cleavage reaction of fructose 1,6-bisphosphate (F1, 6P2) with the 35 kd protein was determined with NADH.
A reaction liquid having the composition mentioned below was prepared, and reacted at 37° C. for 30 minutes. The enzymatic reaction was monitored through the reduction in the 340 nm absorbance owing to the oxidation of NADH in the reaction liquid. The enzymatic reaction was indicated by the number of mols of F1, 6P2, per mg of the protein, cleaved within 1 minute (μmol/min/mg protein).
Reaction liquid 200 μl: 0.25 mM tris HCl buffer (pH 8.0), 0.15 M NaCl, 0.5 mM F1, 6P2 (from Sigma), human 35 kd protein, human liver TIM (500 μg/ml), rabbit skeletal muscle G3PDH (8 units/ml, from Sigma), 0.3 mM NADH (from Nakarai).
For comparison, a commercial product aldolase, Sigma's rabbit skeletal muscle aldolase (A-type aldolase), and an enzyme-free system were tested in the same manner.

For “Sigma's commercial product aldolase: commercial product aldolase, Sigma's rabbit skeletal muscle aldolase (A-type aldolase)”, the “Aldolase Activity (μmol/min/mg protein)” value was 0.278 μmol/min/mg protein.
